From patent US20260258115A1 (MAPP BIOPHARMACEUTICAL, published 2026)

B1: ADI-41452 (antibody, V domains shown)
VH: QVQLVQSGAELKKPGASVKVSCKASGHTFATYAIHWVRQAPGQSLEWLGWINTANGDTKYSQKFRATVTIHGDTSANTVYLELSRLRSEDTAVYYCASPPLVGAINLEFWGPGTLVTVSS
VL: QSVLTQPASVSGSVGQSITISCTGTSSDVGGYNSVSWYQHHPDKAPKLIIYEVSNRPSGVSHRFSGSKSGNTASLTISGLQAEDEADYYCSSYTTSDTLIFGGGTKVTVL
notes: IgG1; also called Ab 736
B2: ADI-41447 (antibody, V domains shown)
VH: EVQLLESGGGLVQPGGSLRLSCAASGFTFSTYAMNWVRQAPGKGLEWVSTISGSGGSTYYGDSVKGRFTISRDNSKNTLYLQMNSLRAEDTAVYYCAKAPTPWCSGGSCYVSYWGQGTLVTVSS
VL: DIVMTQTPGTLSLSPGERGTLSCRASQSVSSSYLAWYQQKPGQAPRLLIYGASSRATGIPDRFGGSGSGTDFTLTISTLEPEDFAVYYCQQYQSSPWTFGQGTKLEIK
notes: IgG1
B3: ADI-41449 (antibody, V domains shown)
VH: EVQLVESGGGLVKPGGSLRLSCAASGFSFSSYRVNWVRQAPGKGLEWVSSITGGSSFIDYADSVKGRFTISRDNAKNSLFLQMNSLRAEDTAVYFCARDSMTTVTNSLAFDIWGQGTMVTVSS
VL: QSVLTQPPSVSGAPGQRVTISCTGSSSNIGVGYDVQWYQQLPGTAPKLLIYSNNKRPSGVPDRFSGSKSGTSASLAITGLQAEDEADYYCQSYDRSLSVVFGGGTKVTVL
notes: IgG1
B4: ADI-41454 (antibody, V domains shown)
VH: QVQLVQSGAEVKKPGASVKVSCKASGYTFTHFGISWVRQAPGQGLEWMGWISIYNGNTNYAQKIQGRATMTTDASTSTAYMELRSLTSDDTAVYYCAREPPSTTAAATSDYWGQGTLVTVSS
VL: DIVMTQSPLSLPVTLGQPASISCRSSQSLVYIEGNTYLSWFQQRPGQSPRRLIYKVSNRDSGVPDRFSGSGSGTDFTLKISRVEAEDVGLYYCMQGTHWPRTFGQGTKLEIK
notes: IgG1; also called Ab 738
B5: ADI-41450 (antibody, V domains shown)
VH: EVQLVESGGGLVKPGGSLRLSCAASGFAFSSYGINWVRQVPGKRLEWVSSISGGSSFINYADSVKGRFTISRDNAGNSVYLQMNSLRAEDTAVYFCARESYGSGSSLNWFDPWGQGTLVTVSS
VL: QSVLTQPPSVSGAPGQRVTISCTGSGSNIGAGYDVHWYQQLPGIAPRLVIFGNRNRPSGVPDRISGSKSDTSASLAITGLQAEDEGDYYCQSYDKRLSGWVFGGGTKLTVL
notes: IgG1
B6: ADI-21080 (antibody, V domains shown)
VH: EVQLLESGGGLVKPGGSLRLSCEVSGFRLSDYYMSWIRQAPGKGLEWVSHISGGSTYTNYADSVKGRFTISRDNGKKSMYLQMNSLRAEDTALYYCAKWGSGGPEAFDIWGRGTMVTVSS
VL: QSALIQPPSVSGAPGQRVTISCTGSSSNIGAGYDVHWYQQIPGTAPKLLIYGNNNRPSGVPDRFSGSKSGTSASLAITGLQAEDEADYYCQSYDNSLSGSVVFGGGTKLTVL
B7: ADI-21078 (antibody, V domains shown)
VH: EVQLVESGGGLVKPGGSLRLSCAASGFRLSDYYMSWIRQAPGKGLEWISDISGGSTYTNYADSVKGRLTISRDNAQNSLYLQMNSLRAEDTAVYYCARWGSGGPDAFHFWGQGTTVTVSS
VL: QSVLTQPPSVSGVPGQRVTISCTGSRSNIGAGYDVHWYRQLPGTAPKLLIYGNSNRPSGVPDRFSGSKSGTSASLAITGLQADDEADYYCQSYDSSLSGSVIFGGGTKVTVL
B8: ADI-21069 (antibody, V domains shown)
VH: EVQLVESGAEVRKPGASVKVSCKASGYTFSSNAISWVRQAPGQGLEWMGYISVFNGNTKYAQNLQGRVTMTTDTATSTVYMELRSLRYDDTAIYYCARESLGMGGFYFDHWGQGTLVTVSS
VL: SYELTQPPSVSVAPGQTARITCGANNIGSDSVHWYQQKPGQAPVLVVFDDRDRPSGIPERFSGSNSGNTATLTISRVEAGDEADYYCQVWMTSDRSVFGGGTKLTVL
B9: ADI-36673 (antibody, V domains shown)
VH: QVQLVQSGGGLVKPGGSLRLSCAASGFTFRDFYMSWIRQAPGKGLEWVSNISPSSTYTNYADSVKGRFTISRDNAKNSLYLQMNSLRAEDTAVYYCVKSEGYSSGWYDYWGQGTLVTVSS
VL: QPVLTQPPSVSGAPGQRVTISCTGSSSNIGAGYDVNWYHQLPGAAPKLLIYTNSNRPSGVPDRFSGSKSGTSASLAITGLQAEDEADYYCQSYDSSLSGYVFGTGTKLTVL
notes: also called Ab 830; Antibody Number 830
B10: ADI-41809 (antibody, V domains shown)
VH: QVTLKESGGGLVQPGGSLRLSCAASGFTFSNYAMSWVRQAPGKGLEWVSAISHSDSRTFYADSVKGRFTISRDNSKNTLFLQMDSLRAHDTAVYYCANVDPSSVTYYGYYYGMDVWGQGTTVTVSS
VL: QSVLTQPPSASGTPGQRVTISCSGSSSNIGKNFVYWYQQFPGTAPKRLIYRNNQRPSGVPDRFSGSRSGTSASLAISGLRSEDEADYYCATWDDSLSGWVFGGGTKLTVL
B11: ADI-41567 (antibody, V domains shown)
VH: QVQLQQWGAGLLKPSETLSLTCEVYGGSFSGYYWTWFRQPPGEGLEWIGEINHSGGTNYNPSLKSRVTMSVDASINQFSLQLSSVTAADTSVYYCARGHYYNTNDFYGLFDYWGQGTLVTVSS
VL: DIRLTQSPSFLSASVGDRVTITCRASQGISTYLAWYQQKPGKAPKLLLYAASTLHSGVPSRFSGSGSGTEFTLTISSLQPEDFATYYCQQLNRYPPSTFGPGTKLEIK
notes: also called Ab 845; Antibody Number 845
B12: ADI-36676 (antibody, V domains shown)
VH: EVQLLESGGGVVQPGRSLRLSCAASGFSFRNYDMHWVRQAPGKGLEWVAIISYDGSNKYADSVKGRFTISRDTSKNTLYLQMNSLRVEDTAVYYCARADSSGYYKGSEYFQHWGQGTLVTVSS
VL: SYELTQLPSVSVAPGQTARITCGGNNIGTKSVQWYQHKPGQAPVLVVYDDSDRPSDIPERFSGSNSGNTATLTISRVEAGDEADYYCQVWDSSSDHYVFGTGTKLTVL
notes: also called Ab 832; Antibody Number 832
B13: ADI-41756 (antibody, V domains shown)
VH: EVQLLESGGGVVQPGRSLRLSCAASGLSFNSFGMHWVRQAPGKGLEWVAVIAYDGSNKYYADSVKGRFSISRDNSKNTLYLQMDSLRAEDTAVYYCAKAEAPNFSWSGYLSAFDIWGQGTTVTVSS
VL: QPVLTQPASVSGSPGQSVTVSCTGTSDDVGDYNYVSWYQQHPGKAPKLLIFEVSDRPSGVSTRFSGSKSGNTASLTISGLQTEDEADYYCSSYTSRNLYVFGTGTKVTVL
B14: ADI-41790 (antibody, V domains shown)
VH: QVQLVQSGAEVKKPGSSVKVSCKASGGTFSNYGISWVRQAPGQGLERLGGIIPIYGTANHAQNFQGRVTITADESTSTAYMELSSLRSEDTAVYYCARDGTFVRYYGMDVWGQGTTVTVSS
VL: EIVLTQSPATLFLSPGERATLSCRASQSVSNYLAWFQQKPGQAPRLLIYDTSIRATGIPARFSGSGSGTDFTLTISSLEPEDFAFYYCQQRSNWPPTFGGGTKLEIK
B15: ADI-41787 (antibody, V domains shown)
VH: EVQLLESGGGVVQPGRSLRLSCAASGFTFSSSGMHWVRQAPGKGLEWVAIISSDGSKHYYADSVKGRFTISRDNSKNTLYLEMNSLRAEDSAVYYCAREGVWSGFFVDTGTDFRHHGMDVWGQGTTVTVSS
VL: SYELTQPPSVSVSPGQTARITCSGDALPKKFAFWYQQKSGQAPLLVIHEDNKRPSGIPERFSGSSSGTLATLTISGAQVEDEADYYCYSIDTSANLGVFGGGTKLTVL
B16: ADI-36678 (antibody, V domains shown)
VH: EVQLVQSGGGLVQPGGSLRVSCAASGLTVSTNYMSWVRQLPGKGLEWVSVIYSGGNTYYADSVKGRFTISRDNSKNIVYLEMNSLRIEDTAVYYCARAHLNNWFVSVTDTKDYYFDYWGQGTLVTVSS
VL: SYELTQPPSVSVLPGQTASITCSGDKLGDKYASWYQQKPGQSPILVVFQDDKRPSGIPERFSGSNSGNTATLTISGTQATDEADYYCQACDRNTGVFGTGTKLTVL

molecular target: RSV postfusion F (postF), F deltaFP (respiratory syncytial virus, UniProt P03420 26-513); assay: BLI, IgG on sensor

Binder | binding result
B1 | no binding (tested: 100 nM antigen)
B2 | no binding (tested: 100 nM antigen)
B3 | no binding (tested: 100 nM antigen)
B4 | no binding (tested: 100 nM antigen)
B5 | no binding (tested: 100 nM antigen)

molecular target: RSV F on recombinant mKate-RSV A2 virus (Respiratory syncytial virus A2, UniProt P03420 26-574); assay: cell-based or functional assay

Binder | Neut IC50 (ug/ml) subtype A [µg/mL]
B6 | 0.1
B7 | 0.03
B8 | 0.11

molecular target: RSV F on recombinant mKate-RSV B 18537 virus (Respiratory syncytial virus B 18537, UniProt P13843 26-574); assay: cell-based or functional assay

Binder | Neut IC50 (ug/ml) subtype B [µg/mL]
B6 | 0.17
B7 | 0.2
B8 | 0.26

molecular target: RSV fusion glycoprotein (RSV F) on RSV-A2 virus (respiratory syncytial virus, UniProt P03420 26-574); assay: cell-based or functional assay

Binder | Neutralization IC50 (RSV subtype A) [µg/mL]
B1 | > 25
B2 | > 25
B3 | 0.16
B4 | 0.88
B5 | 0.21

molecular target: RSV F on RSV-A2 virus (Respiratory syncytial virus, RSV-A2, UniProt P03420 26-574); assay: cell-based or functional assay

Binder | Neutralization IC50 (RSV subtype A) [µg/mL]
B9 | 0.02
B10 | > 25
B11 | 0.0505
B12 | 0.006
B13 | > 25
B14 | > 25
B15 | 0.38
B16 | 0.006

molecular target: RSV prefusion F, subtype A (preF, DS-Cav1 trimer) (Respiratory syncytial virus subtype A, UniProt P03420 26-513); assay: BLI, IgG apparent affinity

Binder | Kd [nM]
B6 | 0.36
B7 | 0.311
B8 | 0.123

molecular target: RSV postfusion F (postF), F ΔFP (Respiratory syncytial virus, UniProt P03420 26-513); assay: BLI, IgG on anti-human IgG sensor

Binder | binding result
B9 | no binding (tested: 100 nM antigen)
B10 | no binding (tested: 100 nM antigen)
B11 | no binding (tested: 100 nM antigen)
B12 | no binding (tested: 100 nM antigen)
B13 | no binding (tested: 100 nM antigen)
B14 | no binding (tested: 100 nM antigen)
B15 | no binding (tested: 100 nM antigen)
B16 | no binding (tested: 100 nM antigen)

molecular target: RSV prefusion F (preF), DS-Cav1 (respiratory syncytial virus, UniProt P03420 26-513); assay: BLI, IgG on sensor, 100 nM antigen

Binder | Kd [nM]
B1 | 3.33
B2 | 54.1
B3 | 0.508
B4 | 0.588
B5 | 0.613

molecular target: RSV prefusion F (preF), DS-Cav1 (Respiratory syncytial virus, UniProt P03420 26-513); assay: BLI, IgG on anti-human IgG sensor, 100 nM antigen

Binder | Kd [nM]
B9 | 0.62
B10 | 2.65
B11 | 0.717
B12 | 0.282
B13 | 29
B14 | 3.15
B15 | 1.56
B16 | 0.716
